Experimental data: patent US20150050211A1 (UNIVERSITY OF SOUTHERN CALIFORNIA, published 2015)

Tests used:
Test in all cases: cell-based or functional assay
[1] = target: Her-2 (Human epithelial growth factor 2) on SKBR-3 cells (human) (UniProt P04626)
[2] = target: T1, Her-2 (Human epithelial growth factor 2) on SKBR-3 cells (human, UniProt P04626 23-1255)
[3] = target: T1, Her-2 (Human epithelial growth factor …); remark: listed apart in the source

AHNP (peptide)
IC50, inhibition of proliferation of Her-2 positive cells (SKBR-3), BrdU incorporation [1]: 67000 nM

B1: Peptide 1 (peptide)
peptide: MAVYVHYHK
modifications: not fully specified; V is N-methyl norvaline (positions 3 and 5); cyclized from the lysine side chain to the N-terminus
fold improvement of EC50 over HRAP, BrdU cell proliferation assay [2]: ~450 fold
IC50, inhibition of proliferation of Her-2 positive cells (SKBR-3), BrdU incorporation [3]: 520 nM

B2: Peptide D (peptide)
peptide: MVCVVLYDDK
modifications: not fully specified; N-methyl norvaline at positions 4 and 5 (position 2 is Val, per paragraph 127); cyclized from the lysine side chain to the N-terminus
fold enhancement of EC50 over ANHP, BrdU cell proliferation assay [2]: ~110 fold
IC50, inhibition of proliferation of Her-2 positive cells (SKBR-3), BrdU incorporation [3]: 640 nM
